Here are results for two molecules from patent US7592006 (UNIVERSIT CATHOLIQUE DE LOUVAIN, dated 2009).

For assay [1], the target named is T1, human CD2 (human, UniProt P06729 25-351).
T1 construct: whole, on cells; The plasmid is cited from Peterson and Seed, Nature 1987; also called CD2 antigen; wild-type CD2
T1 sequence (looked up): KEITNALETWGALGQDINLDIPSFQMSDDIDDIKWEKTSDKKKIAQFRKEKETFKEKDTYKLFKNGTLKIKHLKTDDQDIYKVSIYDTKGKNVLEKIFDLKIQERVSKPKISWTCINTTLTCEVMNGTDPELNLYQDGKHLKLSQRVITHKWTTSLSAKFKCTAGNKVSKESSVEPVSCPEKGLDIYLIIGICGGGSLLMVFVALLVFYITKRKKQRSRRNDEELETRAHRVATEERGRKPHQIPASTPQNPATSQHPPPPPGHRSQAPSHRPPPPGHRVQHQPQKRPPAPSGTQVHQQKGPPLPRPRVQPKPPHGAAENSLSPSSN
Description: two color flow cytometry on human PBMC, biotinylated LO-CD2a and Leu-5bPE; Y axis (FL2) taken as Leu-5b-PE, inferred. For orientation: Flow cytometry measures light scatter and fluorescence of single cells or particles in a stream.

In assay [2] the target is T1, human CD2. As to the kind of experiment: two color flow cytometry on human PBMC, biotinylated LO-CD2a and Leu-5bPE; upper left quadrant taken as Leu-5b-PE positive, LO-CD2a below the quadrant limit (axes inferred: X = FL1 LO-CD2a, Y = FL2 Leu-5b-PE).
The target of assay [3] is T1, human CD2. As to the kind of experiment: flow cytometry on CD2-expressing Jurkat cells, 0 to 4 µg/ml antibody (FIG. 35). How it is done:
Transient expression in COS cells and detection of secreted antibody were carried out as described previously for the chimeric antibody. The humanized antibody was purified by affinity chromatography (Protein A). […] The Jurkat cell line, which expresses CD2, was stained with rat LO-CD2a, the humanized LO-CD2a (LO-CD2aHu), or rat IgG2b or human IgG controls. Antibody concentrations ranged from 0 to 4 ig/ml. […] Bound antibodies were detected with an isotype-specific FITC-conjugated antisera. The results shown in FIG. 35 are expressed as the percentage of cells positively stained by the antibodies over the range of concentrations mentioned hereinabove. Functional studies indicate that the humanized antibody is also capable of inhibiting a primary MLR. Nanogram quantities of LO-CD2a, LO-CD2aHu, rat IgG2b control, or human IgG1 control were added to culture wells containing equivalent numbers of human peripheral blood mononuclear cells (PBMC) from a designated responder and stimulator (irradiated cells). Control wells contained no antibody. The cultures were incubated for 5 days, then pulsed overnight with tritiated thymidine. (3HT). Proliferation is detected by the uptake of 3HT. The results, as given in Table 3 below, are expressed as the mean CPM as recorded by a Beta plate reader.

“Leu-5b, mouse anti-human CD2 monoclonal antibody (Becton Dickinson)”: in the assay with human CD2 [1], the Y MEAN fluorescence (quadrant 1UL) was found to be 285, the Y MEAN fluorescence (quadrant 2UR) is 631 and the Y MEAN fluorescence (quadrant 4LR) was 6.54. Besides, in the assay with human CD2 [2], the % GATED (quadrant 1UL) amounted to 23.2%.

B1: humanized LO-CD2a (antibody, V domains shown)
VH: QVQLVQSGAEVKKPGASVKVSCKASGYTFTEYYMYWVRQAPGQGLELMGRIDPEDGSIDYVEKFKKKVTLTADTSSSTAYMELSSLTSDDTAVYYCARGKFNYRFAYWGQGTLVTVSS
VL: DVVMTQSPPSLLVTLGQPASISCRSSQSLLHSSGNTYLNWLLQRPGQSPQPLIYLVSKLESGVPDRFSGSGSGTDFTLKISGVEAEDVGVYYCMQFTHYPYTFGQGTKLEIK
notes: Variable regions were cloned into the MRC light (human kappa) and heavy (human gamma 1) chain vectors; Expressed in COS cells and purified on Protein A; also called LO-CD2aHu; humanized antibody
In the case of B1, the binding result with human CD2 [3] is on record as “binds”.
